The values that follow come from the nanobody polyreactivity screen of Harvey et al. (2022).

The nature of the series: yeast display, Sf9 membrane polyspecificity reagent, FACS + sequencing; frameworks hold sequencing errors. An outline of the steps: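 A nanobody's polyreactivity label depends on the gate it was sorted from. Yeast display cells were stained with 10% biotinylated, detergent-solubilized Sf9 membrane reagent for 1 hour at 4 °C, enriched on streptavidin microbeads and sorted by FACS. The low and high (top ~1%) gates were set on anti-HA fluorescence for expression and streptavidin fluorescence for reagent binding.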
As for “QVQLVESGGGLVQAGGSLRLSCAASGRIRRYYAMGWYRPAPGKEMELVAVITSSDGSTYYADSVKGRFTISRDNAKTTVYLQMNSLKPEDTAVDYCAAAPLWRLDSWSDPYRRYDYWGQGTQVTVSS”, the “polyreactivity (PSR sort gate)” value was “low polyreactivity”. As for “QVQLVESGGGLVQAGGSLRLSCAASGRISDVYAMGWYRQAPGKERELVAVISWRGGTTRYADSVKGRFTISRDNAKNTVYLQMNSLKAEDTAVFYCAAKTVLWGQGTQVTVSS”, the entry is “high polyreactivity”; as for “QVQLVESGGGLVQAGGSLRLSCAASGRISESNDMGWYRQAPGKERELVAAISSSGGSTYYADSVKGRFTISRDNAKNTVYLQMNSLKPVDTAVYYCNAVYYRTVLKIGVYEYDYWGQGTQVTVSS”, “low polyreactivity”; as for “QVQLVESGGGLVQAGGSLRLSCAASGRISFRYAMGWYRQAPGKERELVAAINRGGITNYADSVKGRFTISRDNAKNTVYLQMNSLKPEDTAVYYCAARYASPRYKSKMDYWGQGTQVTVSS”, “high polyreactivity”. For the sequence “QVQLVESGGGLVQAGGSLRLSCAASGRISFRYAMGWYRQAPGKERELVAAINRGGITNYADSVKGRFTISRDNAKNTVYLQMNSLKTEDTAVYYCAARYASPRYKSKMEYWGQGTQVTVSS”, the “polyreactivity (PSR sort gate)” value is on record as “high polyreactivity”.

Take “QVQLVESGGGLVQAGGSLRLSCAASGRISGGYAMGWYRQAPGKERELVAVISSGGRTYYADSVKGRFTISRDNAKNTVDLHMNSLKPEVTGVYYCNAYTWGIVDNYDYWGQGTQVTVSS”: the “polyreactivity (PSR sort gate)” value is on record as “low polyreactivity”. As for “QVQLVESGGGLVQAGGSLRLSCAASGRISNNAMGWYRQAPGKERELVAAITYRGSSTYYADSVKGRFTISRDNAKNTFYLQMISLKPEDTAVYYCAAQRSYAYEYWGQGTQVTVSS”, the entry is “high polyreactivity”; as for “QVQLVESGGGLVQAGGSLRLSCAASGRISQIYAMGWYRQAPWKERELVARITSTDSTYYADSVKGRFTISRDNAKNTVYLQMNSLKPEDTAVYYCAASWWSPYDYWGQGTQVTVSS”, “low polyreactivity”; as for “QVQLVESGGGLVQAGGSLRLSCAASGRISQNAMGWYRQAPGKERELVAAITFSGGSTYYADSVKGRFTISRDNAKNTVYFQMNSLKPEDTAVYYCNADWPAQWHYYDSKQDDYWGQGTQVTVSS”, “low polyreactivity”. In the case of “QVQLVESGGGLVQAGGSLRLSCAASGRISRVYAMGWYRQAPGKERELVAAITSSGGSTYADSVKGRFTISRDNAKNTVYLQMNSLKPEDTAVYYCAADSYWYRFLKSRYDYWGQGTQVTVSS” it was “low polyreactivity”; in that of “QVQLVESGGGLVQAGGSLRLSCAASGRISRYNTLGWSSQAPGKERELVAVISWSGASTYYADSVKGRFTISRDNAKNTVYLQMNSLKPEDTAVYYCAAYYRWYNYDYWGQGTQVTVSS”, “high polyreactivity”; in that of “QVQLVESGGGLVQAGGSLRLSCAASGRISSLYAMGWYRQAPGKERELVAGITWRGGSTYYADSVKGRFTISRDNAKNTVYLQMNSLKPEDTAVYYCNAVWVQQVVGDGKRTWNFWYDYWGQGTQVTVSS”, “low polyreactivity”. In the case of “QVQLVESGGGLVQAGGSLRLSCAASGRISSQYAMGWYRQAPGKERELVAAISTSGDRTYYADSVKGRFTISRDNAKNTVYLQMNSLKPEDTAVYYCAKDGPYTYGRDIYEYWGQGTQVTVSS” it was “low polyreactivity”; in that of “QVQLVESGGGLVQAGGSLRLSCAASGRISSSYAMGWYRQAPGKEREFVAGITSIGGRTYYADSVKGRFTISRDNAKNTVYLQMNSLKPEDTAVYYCATTSSWRYGYWGQGTQVTVSS”, “high polyreactivity”; in that of “QVQLVESGGGLVQAGGSLRLSCAASGRISSVYAMGWYRQAPGKERELVAAINWRVGSTYYADSVKGRFTISRDNAKNTVYLQMNSLKPEDTAVYYCAVDPVYGIIGSRYDYWGQGTQVTVSS”, “low polyreactivity”. Consider “QVQLVESGGGLVQAGGSLRLSCAASGRISTYTMGWYRQAPGKERELVATISTHASTNYSDSVKGRFTISRDNAKYTVYLQKYSMKPEDNAVFYCATTVPVILYVTPSTYAVVGYEYWGQGTQVTVSS”, for which the “polyreactivity (PSR sort gate)” value was “low polyreactivity”. As for “QVQLVESGGGLVQAGGSLRLSCAASGRISWVYAKGWYRQPPGKERELVAAITFSGGSTYYADSVKGRFTISSDNEKNTVYLQMNSLKPEDTAVYYCAADVLAIYSHRYYRYDSWGQGTQVTVSS”, the entry is “high polyreactivity”; as for “QVQLVESGGGLVQAGGSLRLSCAASGRISYYYMGWYRQAPGKERELVAAISWNGGRTYYADSVKGRFTISRDNAKNTVYLQMNSLKPEDTAVYYCAAYTYSFRANHDYWGQGTQVTVSS”, “high polyreactivity”. As for “QVQLVESGGGLVQAGGSLRLSCAASGRITQYTMGWYRQAPGKERELVASIRKSGSTHYADSVKGRFTISRDNAKNTVYLQMNSLKPEDTAVYYCAARTYNPLTGYGYWGQGTQVTVSS”, the entry is “high polyreactivity”; as for “QVQLVESGGGLVQAGGSLRLSCAASGRIVGAYAMGWYRQAPGKERELVAAITSAGSTHYADSVKGRFTISRDNAKNTVYLQMNSLKPEDSAVYYCAADGIARAYVLFYAYDFLYDYWGQGTQVTVSS”, “low polyreactivity”; as for “QVQLVESGGGLVQAGGSLRLSCAASGRIVGLYAKGWYRQAPGKERELVATITRRAGSTYYADSVKGRFTISRDYAKNTVYLLMNSLKPEDTAVYYCAASALRFNSRFSHWYNYWGQGTQVTVSS”, “high polyreactivity”. With “QVQLVESGGGLVQAGGSLRLSCAASGRIVKANAMGWYRQAPGKERELVAAIRESGGTTYYADSVKGRFTISRDNATNTVYLQMNSLKPEDTAVYYCAAAYRDTQYNYYYWGQGTQVTVSS”, the “polyreactivity (PSR sort gate)” value is “high polyreactivity”. As for “QVQLVESGGGLVQAGGSLRLSCAASGRIVKYAMGWYRQAPGKERELVAAISGSGGTTYYADSVKGRFTISRDNAKNTVYLQMNSLKPEDTAVYYCAASRPRPPSSRRMDYWGQGTQVTVSS”, the entry is “high polyreactivity”; as for “QVQLVESGGGLVQAGGSLRLSCAASGRIVKYAMGWYRQAPGKERELVAAISSSGGTTYYADSVKGRFTISRDNAKNTVYLQMISLKPEDTAVYYCAAPGTYTSRGSDYWGQGTQVTVSS”, “high polyreactivity”; as for “QVQLVESGGGLVQAGGSLRLSCAASGRIVPYAMGWYRQAPGKERELVARINFNGGSTYYADSVKGRFTISRDNAKNTVYLQMNSLKPEDTAVYDCAARVYRYRYSKYDYWGQGTQVTVSS”, “high polyreactivity”. In the case of “QVQLVESGGGLVQAGGSLRLSCAASGRIVRRYARGWYIQAPGKERELVAAITNNGGNTYYADSVKGRFTISRDNAKNTVYLQMNSLKPEDTAVYYCKAGYYWGQGTQVTVSS” it was “high polyreactivity”; in that of “QVQLVESGGGLVQAGGSLRLSCAASGRIVYSNAMVWYRQAPGKERELVASITRGSRTNYADSVKGRFTISRDNAKHSVYLPMNSLKPEDTAVYYCARRYLLKPGFGRFYYWGQGNQVTVSS”, “high polyreactivity”; in that of “QVQLVESGGGLVQAGGSLRLSCAASGRIWVNAMGCYRQAPWKESELVAAISTSSASTYYADSVKGRFTISRDNAKNTVYLEMNSLKPEDTAVYYCAARWARQLGSGRRGDYWGQGTQVTVSS”, “high polyreactivity”. With “QVQLVESGGGLVQAGGSLRLSCAASGRIWVYYTMGWYRQAPGKERELVAAITGSGGSTYYADSVTGRFTISRDNATNTVYLQMNSLKPEDTAVYYCAVYDSYRKFKYWGQGTQVTVSS”, the “polyreactivity (PSR sort gate)” value was “high polyreactivity”. Take “QVQLVESGGGLVQAGGSLRLSCAASGRIWYYAMGWYRQAPGKERELVAAISFSGGTTYYADSVKGRFTISRDNAKNTVYFPMNSLKPEDTGVYYCNKVSVGRYKRDYWGQGTQVTVSS”: the “polyreactivity (PSR sort gate)” value is listed as “high polyreactivity”.

For “QVQLVESGGGLVQAGGSLRLSCAASGRIYASYVMGWYRQAPGKERELVAAISYGGSRTYYADSVKGRFTISRDNAKNTVYLQMNSLKPEDTAVYYCAAKKYTNRGYYYWGQGTQVTVSS”, the “polyreactivity (PSR sort gate)” value was “high polyreactivity”. As for “QVQLVESGGGLVQAGGSLRLSCAASGRIYAVNAMRWYRQAPGKERELVARIRRIGGSTYYADSVKGRFTISRDNAKNTVYLQMNSMKPEDTAVYYCAKTLGRRHPGYDYWGQGTQVTVSS”, the “polyreactivity (PSR sort gate)” value was “high polyreactivity”. As for “QVQLVESGGGLVQAGGSLRLSCAASGRIYDDYAMGWYRQAPGKERELVAAISSSGGSTYYADSVKGRFTISRDNAKNTVYLQMNSLKPEDTAVYYCARYPPGRRRYEYWGQGTQVTVSS”, the entry is “high polyreactivity”; as for “QVQLVESGGGLVQAGGSLRLSCAASGRIYGDNTMGWYRQAPGKEREFVAAISFIGGSTYYADSVKGRFTISRDNAKNTVYLQMNSLKPEDTAVYYCATVERWTYWFVGYDYWGQGTQVTGSS”, “high polyreactivity”; as for “QVQLVESGGGLVQAGGSLRLSCAASGRIYGYAMGWYRQAPGKESELVAVITTSGGRTYYADSVKGRFTISRDNAKNTVYLQMNSLKPEDNAVYYCNVGKPSRRSYGTLIPAALYDSWGQGTQVTVSS”, “high polyreactivity”. “QVQLVESGGGLVQAGGSLRLSCAASGRIYLNAMGWYRQAPGKERELVAAISSRGASTYYADSVKGRFTISRDNAKNTVYLQMKSLKPEDTAVFYCAARLRNIYYFRMGYWGQGTQVTVSS”: the “polyreactivity (PSR sort gate)” value was “high polyreactivity”.

Consider “QVQLVESGGGLVQAGGSLRLSCAASGRIYPGYTMGWYRQAPGKERELVAGISRSGGRTYYADSVKGRFTISRDNAKNTVYLQMNSLKPEDTAVYYCAADGYPGRRYTGMDYWGQGTQVTVSS”, for which the “polyreactivity (PSR sort gate)” value was “high polyreactivity”. In the case of “QVQLVESGGGLVQAGGSLRLSCAASGRIYPVYAMGWYRPAPGKERELVAAITSGVSTNYADSVKGRFTISRDNAKNTVYLQMNSLKPEDTAVYYCNKDYTTYPYYEDGYWGLGTQVTVSS” it was “low polyreactivity”; in that of “QVQLVESGGGLVQAGGSLRLSCAASGRIYRGNTKGWYRQAPGKERELVAAITRGGSTSYADSVKGRFTISRDNAKNTVYLQMMSLKPEDTAVYYCATRTHGEGTRRDSWGQGTQVTVSS”, “low polyreactivity”. On to “QVQLVESGGGLVQAGGSLRLSCAASGRIYRSYAMGWYRQAPGKERDLVAAITKSGGGTYYADTVKGRYTISRVNAKNTVYLQMNSLNPEDTAVYYCGARGHGGYYYWGQGTQVTVSS”, for which the “polyreactivity (PSR sort gate)” value was “high polyreactivity”. For “QVQLVESGGGLVQAGGSLRLSCAASGRIYRYYAMGWYRQAPGKERELVAAITRSGGTTYYADSVKGRFTISRDNAKYTVYLQMNSLKPEDTAVYYCNAGVGQKYDYWGQVTQVTVSS”, the “polyreactivity (PSR sort gate)” value is given as “high polyreactivity”.
